# Several values for one entry are separate records, joined by “and”; a condition that tells them apart may be missing. Equal values may be shown once.
# Key:
# [1] = biological target: C-reactive protein (CRP) (human) (UniProt P02741); assay: ELISA, serum 1:1,000 on plate-coated CRP, detection with goat anti-human CFH
# [2] = biological target: C-reactive protein (CRP) (human) (UniProt P02741); assay: ELISA, purified CFH variant on plate-coated CRP
# Sequence of UniProt P02741 (P02741 19-224 limits assumed): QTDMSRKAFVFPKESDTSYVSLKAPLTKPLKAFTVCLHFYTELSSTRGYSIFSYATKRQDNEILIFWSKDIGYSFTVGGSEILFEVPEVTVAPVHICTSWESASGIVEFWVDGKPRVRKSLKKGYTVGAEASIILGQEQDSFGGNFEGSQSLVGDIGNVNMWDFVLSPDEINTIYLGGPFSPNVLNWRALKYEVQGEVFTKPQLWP
substance,measurement,setting,value
"Complement Factor H 402Y variant (CFH402Y), from human serum of TT homozygotes (from UniProt P08603 19-1231)",OD492,[1],0.532 OD492 and 0.609 OD492
same,OD492,[2],0.763 OD492

# — patent publication US20100143950A1
